This passage reports Kd results from publication PMC7076015 (2020).

This experiment deals with MBP-KPNA7(P339A) (human, UniProt A9QM74 1-516, P339A).

B1: GST-GFP-hnRNP R bipartite NLS (domain or fragment)
chain: RGGNVGGKRKADGYNQPDSKRRQTN
For B1, the Kd is ~157 nM.
